In patent US20240190923A1:
Several values for one entry are separate records, joined by “and”; a condition that tells them apart may be missing. Identical values can stand only once.

B1: C. atrox FETUA-3 (recombinant, tag-free) (protein)
chain: FQLAGNMDCNTKGTKDWADIGVRYINEHKLHGYKQALNIIKIFRLLPSDGRSVIFHFKLNLLETECHVLDPTPLENCTVRQQNNHAVEMDCNVRIIHDIATFEDEVFVKCNSTPDSVENVRRNCPKCPILLPPNDPHVIDSVEYVLNKHNEKLSGHIYEVLEISRGQHKYEPEAFYVEFAIVEVNCTAEEAHDDHHDCHPNTDGENHIGFCRATVFRSHASLEKPKEEMFESDCVILHVKKGHAYSHLIEHHVGKYNTSPGRNSTDECVVQCPVAFVNKEVPKDISDHDTPPVEGCPGKALHFQL
B2: C. atrox FETUA-5 (recombinant, tag-free) (protein)
chain: YMVREEDLNCNSKAAKYRADQAVRYINEHNLHGYKQALNIIKTIRLLPSDGLLVVIYLKLNLLETECHVLDPTPVENCTVRQQNNHAVETDCDVKVIYNIETFKDEFLVKCHSTPGSVEKILQDCPKCPILLSLSDPHVVDSVEYVLNKHNEQLSGHVYEVLEISRGQHKYEPEAFYVEFAIVEVNCTAQEAHDDHHHCHPNTAGENHIAFCRATVFRSYASLEKPKDEKFESDCVILHVKEGHAHSHLIEHHTGKHSTSPGHNSTVLNLAHSHNHTSASHESHSHEHVMEVPVAVANREDPTDIPHHHTPSVDGCPGKVLHFKL

Key:
Experiment in all cases: cell-based or functional assay
MDC-4 (Crotalus atrox) = MDC-4 (Crotalus atrox) (UniProt Q90282)
Chain of UniProt Q90282 (Q90282 190-609 limits assumed): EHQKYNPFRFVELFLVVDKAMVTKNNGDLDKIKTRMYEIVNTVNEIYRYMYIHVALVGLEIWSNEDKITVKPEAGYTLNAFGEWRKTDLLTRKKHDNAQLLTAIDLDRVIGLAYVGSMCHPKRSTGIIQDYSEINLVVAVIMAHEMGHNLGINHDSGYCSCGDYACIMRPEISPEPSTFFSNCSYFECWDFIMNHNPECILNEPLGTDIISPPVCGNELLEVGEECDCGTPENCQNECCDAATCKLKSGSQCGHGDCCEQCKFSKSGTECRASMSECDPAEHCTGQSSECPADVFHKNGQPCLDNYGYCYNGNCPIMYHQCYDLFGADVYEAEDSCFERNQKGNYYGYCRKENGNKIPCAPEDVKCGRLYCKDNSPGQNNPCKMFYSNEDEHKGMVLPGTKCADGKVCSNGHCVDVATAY

[1] = biological target: whole C. atrox venom (SVMP proteolytic activity)
[2] = biological target: whole C. atrox venom (SVMP proteolytic activity); remark: listed apart in the source

Molecule | amount for ˜50% neutralization of 2 µg MDC-4 proteolysis of Azocoll (MDC-4 (Crotalus atrox)) [µg] | weight of CroFab relative to FETUA-3 for ˜50% neutralization of MDC-4 (MDC-4 (Crotalus atrox)) [fold] | weight of CroFab relative to FETUA-3 for approximately 50% neutralization of whole venom SVMP activity [1] [fold] | inhibition of whole venom proteolysis of Azocoll collagen substrate (10 µg venom) [2]
CroFab antivenom (crotalidae polyvalent immune fab ovine) | 12.1 | 16 | 18 | –
B1 | – | – | – | 2.5 µg and 5 µg
B2 | – | – | – | 20 µg
